According to the supplement of paper PMC9170038:

Each sequence was assayed on K4 kissing-loop RNA reporter (assay: apparent KD of K4 kissing-loop reporter; higher = weaker reporter binding). Settings: Eterna round: R107; input ligand: theophylline 20 uM.
Protocol: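 RNA-MaP round R107: designed RNA switches with theophylline, tryptophan, arginine or FMN aptamers are transcribed on-chip within common flanks. They are titrated with a labelled K4 kissing-loop RNA reporter in RNA-MaP buffer (100 mM Tris pH 7.5, 80 mM KCl, 4 mM MgCl2), without ligand or with the indicated ligand. Median apparent KD per design.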
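Further: bound reporter read as fluorescence of individual clusters on recovered sequencing chips by microscopy, with normalized cluster intensities fitted with a binding model.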

In order of falling “apparent KD of K4 kissing-loop reporter” value:
1. AAGUCACAGGCAGGAUAUGCUUAGUAAUAAGGCCAUAUAUACGUAUAGAGUGAUGUUUUGUACCAGGCAGAAGGGCUACAUCCGU [FMN B Excl V3 (+2GCs)]  650 nM
2. UAACCUGUAAACGAUACCAGUUGCAUGGAAACUUGGUACUAGCUAGUGAUGUUAGCAAGCAACCCUUGGCAGCGUCGCCUGACAG [theeternabot_sameState_KL_Theo_B_17]  487 nM
3. AACAGCAAUGCGGCCGCCACUUCGAGGUCAGUGAUGUUGACGGAAUUAAAUAAAGAUCCCAAGAGGAGGACCGGGCAGUGCUGUU [whbob_SS_Tryp_B_t25]  410 nM
4. CAUACGCAUGGAGGAUAUGGGAUUUCUCAUAUUAACCUGUAUCAGGUAUCUCAGUGAUGUUGAGACUCAGAAGGCCAUGUGUAUG [Ex FMN B 25]  354 nM
5. AUUUUGGUUUAGAGUGAUGUUCCUUGUAUUCGAGGACCGGUACGGCCGCCACUCGAAUAGAAAAGAAAAGAAAUGUUUGAUUUUU [BDazzled - #7 SS Tryptophan A]  351 nM
6. UGAUAGGACAGAAGGAGCGGUAGUGAUGUUGCCAAAAGAAUAAGGUGUCAAAAGACACCCUGCCAGGUAGGUCGCUGUCCUAUCU  188 nM
7. UUUCGUCUCUGAGGAUAUCAGAAUAGAGUGAUGUUCUAUCAAAGCCCAGUGAUGUUGGAUGCUAUCUGAGAAGGCAGUGGGCGAG [Same State FMN B GF 11]  185 nM
8. AAAACGCUGUGAAUAACACAGCGAAAUUCGCGAGGACCGGUACGGCCGCCACUCGCUAACUGCGAGUGAUGUUCGAUAAUAAAAU [Mat - Mod of OpenEnded 3 - D3]  161 nM
9. AAAACUCCGGGUAGUGAUGUUACCUAGGAUACCAGUAUCGCAACAUACCCUUGGCAGCCUCUUCCUGCUGGCGUCGCUUGGCCUA [theeternabot_exclusion_KL_Theo_A_42]  91.9 nM
10. ACGAUCAUGUCGGCCGCCACUGAGAGUAGUGAUGUUACUUUUAUGUUUUAGUUAUAAUAUUUGAACAGGACCGGGACAUGUUCGU [JR_ExcTryptoB_Sub023]  80.1 nM
11. ACCAUUUUACCGGCAGUAGUGAUGUUACUCCGAGGACCGGUACGGCCGCCACUCGCGAACGUAGGGUCGCGCACUCAAAGAGUGC  67 nM

Same assay, conditions: Eterna round: R107; input ligand: tryptophan 2.4 mM

In order of falling “apparent KD of K4 kissing-loop reporter” value:
1. UGAUACCAGACGGCCGCCACUGGUGCAGUCAAAGACUGCUAAAACCAAAUCGUGGAGUGAUGUUCCAGGACCGGGUCUGGUAUCU [TrypBX 20 #SwitchBubble #Palindromic #StaticStem]  674 nM
2. AGAGUUAUGCGAGGAUAUGCAGUUAGUACUCAAAGAGUACUAACAGCAGAGUGAUGUUCUGUGAAAGCAGAAGGUGCAUAACUCA [Omei KL FMN B SS B v7]  671 nM
3. AUAGGAGUGAUGUUCCUUAGUCUCUCCGAUACCAGUAUGGAAACAUACCCUUGGCAGCGGUAGACCGCAGAUUAGGAAACUAGUC [Theophylline A K4 3]  610 nM
4. UGUAUGUGUCAGCGAGUGAUGUUCGACGAUACCAGACUCGAUAGAGUCCCUUGGCAGCGUAAUGCAUGCCAAACUGGCACAUACU [#SwitchBubble 13 #K4Early]  600 nM
5. AAGUCACAGGCAGGAUAUGCUUAGUAAUAAGGCCAUAUAUACGUAUAGAGUGAUGUUUUGUACCAGGCAGAAGGGCUACAUCCGU [FMN B Excl V3 (+2GCs)]  597 nM
6. AAAAUAAACCAGUGAUGUUGGUGUCCAGAUACCAGCGAUAAUCAUCGCCCUUGGCAGCUGCGGACGUACAAAAUAAGUACGUCCU [MatMod 12 - Jieux - Same State - Theophylline A]  567 nM
7. GUAAGAUGAGGAGGAGGAUGAAUUACUGAAGGAGCGCAUAUAAAUGCAGGUAGGUCGCGGUAAAGAAGUAUAGUGAUGUUAUAUA [#20 K4 Arginine A Same State]  474 nM
8. UCAUAUACCAGAAGGAGCGUGCAGGACGAAUUAAUCAUCGACCUUAGUGAUGUUAAGGACGCACAGGUAGGUCGCUGGUAUAUGA [Arg B SS t4]  439 nM
9. GUAGGAUGAGGAGGAGGAAGAAAUACUGAAGGAGCGCAAAGAAAUGCAGGUAGGUCGCGGUAAAGAAGUAUAGUGAUGUUAUAUA [SSArgA.C]  373 nM
10. AUUUUGGUUUAGAGUGAUGUUCCUUGUAUUCGAGGACCGGUACGGCCGCCACUCGAAUAGAAAAGAAAAGAAAUGUUUGAUUUUU [BDazzled - #7 SS Tryptophan A]  361 nM
11. CAUACGCAUGGAGGAUAUGGGAUUUCUCAUAUUAACCUGUAUCAGGUAUCUCAGUGAUGUUGAGACUCAGAAGGCCAUGUGUAUG [Ex FMN B 25]  344 nM
12. GCAGUGAUGUUGCGCAGGUACAGUGGAGUGCGAGGACCGGUACGGCCGCCACUCGUACAGAACUAGCUAAUGUAUGGAUAGGUGA [#11 K4 Tryptophan A Same State]  312 nM
13. UAACCUGUAAACGAUACCAGUUGCAUGGAAACUUGGUACUAGCUAGUGAUGUUAGCAAGCAACCCUUGGCAGCGUCGCCUGACAG [theeternabot_sameState_KL_Theo_B_17]  309 nM
14. UCGUCUGUGUGAGGAUAUCCAAGCGAGCUGCGUAAAGGCGCGGCGUUUGGAGUGAUGUUCCAGGCAGGAGAAGGCGCACGGGCUU [Maleisar]  292 nM
15. AACAGCAAUGCGGCCGCCACUUCGAGGUCAGUGAUGUUGACGGAAUUAAAUAAAGAUCCCAAGAGGAGGACCGGGCAGUGCUGUU [whbob_SS_Tryp_B_t25]  289 nM
16. CCCUAAAUAUGCAGUGAUGUUGCAACUGAUACCAGUAUCGAAAGAUACCCUUGGCAGCGGAAAACCGCUACGUAAUUUAAUAGGG [Ex Theophylline A K4 20]  285 nM
17. GGGAGCAAAGCUCCCGGAUGCUAUUACCAGGAGGAUAUCUGGAAACAGAGAAGGCCUAAGCCAGUGAUGUUGGUUUCGAGCAUCC  274 nM
18. UGGACCAAGGAGUGAUGUUCCAAAUGUGAUACCAGCCACGAAAGUGGCCCUUGGCAGCACUGCCAGGACGAAAACGUCCGGUCCU [#SwitchBubble 12 #StaticStem #K4Early]  261 nM
19. UUCAGUGAUGAUGAACACUGUUGUAUAAACUAGGAUAUGCUGAUAAGCAGAAGGAGUGAUGUUCCGUUCAUCAUCAGAAUUAAAU [KL-XFMN-A4]  255 nM
20. CACGGUUAUACGGCCGCCACUGAUUGCGUUGCAGUGAUGUUGCACGCGUCCGACUACACCUCAUUCAGGACCGGGUAGACAUGCA [theeternabot_exclusion_KL_Trp_B_11]  246 nM
21. GUAUCGCUAGGAGGAUAUUUCAAUUCGCCUAUAAUAGGUGAUACGGAGUGAUGUUCCGAUUUACGGAAAGAAGGCCUAGUGAUAC [FMN B 10]  237 nM
22. UAAGAUAUAAGGGAUACCAGCCAUAAGGAAAGUGUGAUGAGUGAUGUUCUGACAAGCCAAGGCCCUUGGCAGCUUUAAUAGCAUC [Theophylline B Same State; Euphoria Solution]  235 nM
23. UUUCGUCUCUGAGGAUAUCAGAAUAGAGUGAUGUUCUAUCAAAGCCCAGUGAUGUUGGAUGCUAUCUGAGAAGGCAGUGGGCGAG [Same State FMN B GF 11]  219 nM
24. GAUCUAUGUCCCGAUACCAGCUCAGAAGCUAGGGAGUGAUGUUCUCGGAGGUUAUCACUGAGCCCUUGGCAGCGGAACGUGACGA [theeternabot_sameState_KL_Theo_B_26]  218 nM
25. CUGGUGCUGAUGCGGUGGCCGGUGGUCGUGCGAGGACCGGUACGGCCGCCACUCGCAUGAGUGAUGUUCAUGUGUCGUCGUCGUC [whbob_EX_Tryp_A_t1]  217 nM
26. UGCAUGCUUGUAGUGAUGUUACAAGAUGAUACCAGUGCUUUUUUGCACCCUUGGCAGCGUCAUAGUGCAUGCACGUCGAAAGACG  201 nM
27. UGUCAUUGGUCGGCCGCCACUUCAUAAAGAGUGAUGUUCUUAAAGACGGAUCGAAAGAUCUGUCGAAGGACCGGGACCGAUGACU [FiskerMod 8 - Jieux - Same State - Tryptophan B]  196 nM
28. AAACGUUGGUCUGAUACCAGCUUGAUCGGUAAACGAUCUACUGGAGUGAUGUUCCUAAAUAGCCCUUGGCAGCAGACCGACGAAA [MAT - Same State Theophlline B - Mod of Eli - D7]  170 nM
29. UAUCUUUGCUGAAGGAGCGAGCAUGUUGGAGUGAUGUUCCGAGCGAGUGAUGUUCGCAUAGCUCAGGUAGGUCGCAGUGGGAGGA [Same State Arginie B GF 16]  135 nM
30. UACUAUAGUGAUGUUAUAGAUAAAACAGAUACCAGUGUUACAUAACACCCUUGGCAGCUGAAAAGGGAAAGUAUAAAUGUGUAUU [AstrosSSTHe-A#1newdesignED]  129 nM
31. UGAUAGGACAGAAGGAGCGGUAGUGAUGUUGCCAAAAGAAUAAGGUGUCAAAAGACACCCUGCCAGGUAGGUCGCUGUCCUAUCU  120 nM
32. GGGCGUUACGGAGUGAUGUUCCGUAGCGAUACCAGCCAUUGCGAUGGCCCUUGGCAGCGCUAUAAGCAUAGAAUUGUAGCGCUUA [Theo A Ex t7b]  105 nM
33. AAAACGCUGUGAAUAACACAGCGAAAUUCGCGAGGACCGGUACGGCCGCCACUCGCUAACUGCGAGUGAUGUUCGAUAAUAAAAU [Mat - Mod of OpenEnded 3 - D3]  104 nM
34. UUGGCCGGACGGGAUACCAGUCAAAUCGUGUGCUUGGGAUGUCUAAGAGCCAGUGAUGUUGGCCCUUGGCAGCCCUCCCAGCUUG [Esleaqu]  93.5 nM
35. ACGAUCAUGUCGGCCGCCACUGAGAGUAGUGAUGUUACUUUUAUGUUUUAGUUAUAAUAUUUGAACAGGACCGGGACAUGUUCGU [JR_ExcTryptoB_Sub023]  92.2 nM
36. ACCAUUUUACCGGCAGUAGUGAUGUUACUCCGAGGACCGGUACGGCCGCCACUCGCGAACGUAGGGUCGCGCACUCAAAGAGUGC  89.7 nM
37. UUGGCAGUGAUGUUGCCAGAGCUCACCGAAGGAGCGCGUGAAAACGCAGGUAGGUCGCGGUAGCGGAGUGAUUCUCCGCGAGGGC [Same State Arginine A GF 21]  87.9 nM
38. UAGAUGUUGUAAGAUAUUGAUAGUCGGGAAGGAGCGCUCACAAUAGCAGGUAGGUCGCCCGACAGUGUUAGGAGUGAUGUUCCUU [7.)]  83.5 nM
39. GAGAACUCUUACGAUACCAGCCGGAGUGAUGUUCCGCGCUUGGACGUAGUAACCCGCACCGGCCCUUGGCAGCGUGGAUCCUAUG [Bibiinor]  80.5 nM
40. AAAACUCCGGGUAGUGAUGUUACCUAGGAUACCAGUAUCGCAACAUACCCUUGGCAGCCUCUUCCUGCUGGCGUCGCUUGGCCUA [theeternabot_exclusion_KL_Theo_A_42]  75.1 nM
41. AAAAUUGCGGUUUUAAGAUCUUUUUGCUUACGAGGACCGGUACGGCCGCCACUCGAGUCAAGUGAUGUUUGAUUUUCUAUUAUUA [JR_ExcTryptoA_Sub015]  71.6 nM
42. GGUGACAACCAGGAGUGAUGUAUAGAAUAGCGAGGACCGGUACGGCCGCCACUCGUGAAGAGAAAGGAGUGAUGUUCCGUAAUGG [Kazoo C3]  62.8 nM
43. UGACAUUGCUCAGAUACCAGACAAGAGGAUCACCCUUGUGCCAAAACGUACUAAAUAAAUGUCCCUUGGCAGCUGAGCAAUGUCU [TheoBX 13]  58.6 nM
